Usually Kd stands for the concentration at which binding is half-saturated. High values mean weaker binding, low ones tighter binding. The term EC50 (read off the curve) denotes the concentration that produces a half-maximal response. Read a high EC50 (read off the curve) as lower potency in that assay.

In assay [1] the target is infliximab. As to the kind of experiment: SPR (Biacore S51), biotinylated peptide on streptavidin chip, infliximab as analyte, 1:1 Langmuir fit, average of N=2. Background: In SPR one partner is held on a chip, and binding of the other changes the refractive index at the surface.
infliximab, sequence (VH, as listed by the source, chain 1 of 2): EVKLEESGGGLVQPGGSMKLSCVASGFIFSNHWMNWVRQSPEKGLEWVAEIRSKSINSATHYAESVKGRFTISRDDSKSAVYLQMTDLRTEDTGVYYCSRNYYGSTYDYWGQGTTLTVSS
infliximab, sequence (VL, as listed by the source, chain 2 of 2): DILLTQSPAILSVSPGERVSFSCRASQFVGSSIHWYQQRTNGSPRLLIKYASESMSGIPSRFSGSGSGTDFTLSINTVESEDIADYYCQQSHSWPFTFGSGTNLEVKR
Assay [2] concerns the target infliximab. As to the kind of experiment: ELISA, infliximab captured on goat anti-human Fc, biotinylated peptide titrated, streptavidin-HRP, luminescence. (In general: ELISA stands for enzyme-linked immunosorbent assay.)

Ends that are not written are not given here.

B1: biotinylated, chemically synthesized peptide having SEQ ID NO: 10 (peptide)
peptide: AGVWCGDETLPPSICFR
modifications: cysteine pairing not given here; also: biotinylated, position not given here
notes: Fmoc solid phase synthesis; also called 1067B
In turn, B1 showed an equilibrium dissociation constant (Kd) with infliximab [1] of 0.00917 µM. Further, in the assay with infliximab [2], the “EC50 (read off the curve)” value is about 10 µM.

B2: biotinylated, chemically synthesized peptide having SEQ ID NO: 2 (peptide)
peptide: AGYVCDPAGPNCWA
modifications: cysteine pairing not given here; also: biotinylated, position not given here
notes: Fmoc solid phase synthesis; also called 1011A
Turning to B2, the Kd with infliximab [1] amounted to 0.0171 µM. Moreover, the “EC50 (read off the curve)” value in the assay with infliximab [2] was about 3 µM.

(Values after patent US20130309222A1 (Janssen / Centocor, published 2013).)
